Source: patent US20110224143A1 (ROCKERFELLER UNIVERSITY, published 2011)
Positions of bridges follow the written chain, without caps; N, C: chain ends. No end group written: not given here.

Target: T1, sNUCB1 (N-terminally truncated human NUCB1, deletion of residues 1-31) (Homo sapiens, UniProt Q02818 32-461)
T1 construct: Expressed in E. coli; also called Calnuc; Ca2+ free NUCB1
T1 sequence: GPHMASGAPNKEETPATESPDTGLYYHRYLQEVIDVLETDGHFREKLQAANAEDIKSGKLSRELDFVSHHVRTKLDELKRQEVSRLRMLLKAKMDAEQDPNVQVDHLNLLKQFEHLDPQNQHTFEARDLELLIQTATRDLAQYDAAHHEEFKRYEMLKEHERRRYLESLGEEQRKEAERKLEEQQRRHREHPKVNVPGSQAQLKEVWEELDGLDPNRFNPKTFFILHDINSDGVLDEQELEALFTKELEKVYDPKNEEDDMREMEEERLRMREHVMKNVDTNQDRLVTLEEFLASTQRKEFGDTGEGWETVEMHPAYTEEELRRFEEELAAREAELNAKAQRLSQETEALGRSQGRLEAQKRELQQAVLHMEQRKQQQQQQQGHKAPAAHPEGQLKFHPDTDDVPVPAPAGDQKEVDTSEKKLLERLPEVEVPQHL
Assay: inferred from TEM of Amylin fibrillization with Ca2+ free NUCB1 added 1:1 at t=0, 2, 7 and 15 min
Text: Aggregation of Amylin involves an initial lag phase, which is associated with the formation of a nucleus. This nucleation phase is followed by the growth phase where monomers/oligomers add on to the nucleus converting the protofibrillar species into mature fibrils (Merlini and Bellotti, N. Engl. J. Med. 349, 583-596, 2003). Inhibitors of amyloidogenesis, known to date, either prolong the lag phase or slow down the growth phase. […] In the second reaction, Amylin oligomerization was allowed to proceed for 2 min into the reaction after which equimolar amount of NUCB1 was added. […] In the third reaction, NUCB1 was added after the nucleation phase of Amylin aggregation was complete (t=7 min). […] In the fourth experiment, the fibrillization reaction was allowed to proceed to the growth phase and NUCB1 was added during the elongation phase (t=1 5 min). […] This summarizes and supports the observation that Ca2+ free NUCB1 can inhibit the aggregation of Amylin at any stage during the fibrillization reaction.

- binding result: binds
B1: Wild type human IAPP (Amylin) (peptide, UniProt P10997 34-70, looked up)
peptide: KCNTATCATQRLANFLVHSSNNFGAILSSTNVGSNTY-NH2
modifications: disulfide 2-7 (inferred)
notes: mature; Present in the assays as monomers, oligomers, protofibrils or mature fibrils, depending on the time of addition; also called hIAPP; Amylin peptide
